Measured values published in patent US8361728B2, “Method for diagnosis of glutamate dehydrogenase disorders” (priority 2008, dated 2013).

Test system: N
Assay: purified protein, by the assay type

Ser445-hGDH2 (Homo sapiens), sequence (chain, as listed by the source): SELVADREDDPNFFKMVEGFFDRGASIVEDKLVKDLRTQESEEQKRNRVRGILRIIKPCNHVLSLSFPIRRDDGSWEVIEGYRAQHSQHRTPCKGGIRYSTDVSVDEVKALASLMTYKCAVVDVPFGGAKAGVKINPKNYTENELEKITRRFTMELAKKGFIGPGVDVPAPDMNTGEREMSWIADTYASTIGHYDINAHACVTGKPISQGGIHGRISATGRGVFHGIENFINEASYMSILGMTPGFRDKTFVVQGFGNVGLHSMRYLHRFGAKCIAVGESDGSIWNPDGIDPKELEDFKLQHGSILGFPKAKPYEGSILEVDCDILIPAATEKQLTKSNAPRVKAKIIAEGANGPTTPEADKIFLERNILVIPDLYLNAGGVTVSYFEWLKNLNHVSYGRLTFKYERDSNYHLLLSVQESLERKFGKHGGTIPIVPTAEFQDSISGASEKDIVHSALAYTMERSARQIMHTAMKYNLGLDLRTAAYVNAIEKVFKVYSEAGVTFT
Ala445-hGDH2 (Homo sapiens; S498A), sequence (chain, as listed by the source S498A): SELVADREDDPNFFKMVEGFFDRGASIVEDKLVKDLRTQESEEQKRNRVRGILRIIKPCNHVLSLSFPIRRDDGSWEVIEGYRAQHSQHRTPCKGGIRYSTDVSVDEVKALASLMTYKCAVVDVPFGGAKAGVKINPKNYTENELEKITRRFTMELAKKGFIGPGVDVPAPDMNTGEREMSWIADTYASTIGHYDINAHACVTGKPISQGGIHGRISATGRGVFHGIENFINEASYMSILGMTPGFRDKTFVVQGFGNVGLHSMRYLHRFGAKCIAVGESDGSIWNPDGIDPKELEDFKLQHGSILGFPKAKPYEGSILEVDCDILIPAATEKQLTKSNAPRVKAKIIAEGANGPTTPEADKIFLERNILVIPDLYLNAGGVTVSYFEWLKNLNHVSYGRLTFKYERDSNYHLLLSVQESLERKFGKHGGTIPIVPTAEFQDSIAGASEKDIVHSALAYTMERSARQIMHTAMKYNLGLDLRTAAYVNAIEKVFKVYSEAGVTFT

Substance	Km [mM]
Ala445-hGDH2 (Homo sapiens; S498A)	21.36 ± 3.56
Ser445-hGDH2 (Homo sapiens)	17.05 ± 2.01
hGDH1 (Homo sapiens)	13.39 ± 0.72
